We go through one substance from publication PMC11082181.

Assay [1] deals with Relatlimab analog, anti-LAG-3 benchmark (human). Put plainly: BLI; ZGGS15 or BM (4 µg/mL) loaded to protein A probes; FcγRI 30 to 1 nM in solution; 150 s association, 200 s dissociation; BLI kinetics assay buffer; 25 °C, 1000 rpm.
The target in assay [2] is ZGGS15, anti-LAG-3/TIGIT bispecific IgG4 antibody (human). The description is as above.

Relatlimab analog, anti-LAG-3 benchmark (human), sequence (heavy, as listed by the source, chain 1 of 2): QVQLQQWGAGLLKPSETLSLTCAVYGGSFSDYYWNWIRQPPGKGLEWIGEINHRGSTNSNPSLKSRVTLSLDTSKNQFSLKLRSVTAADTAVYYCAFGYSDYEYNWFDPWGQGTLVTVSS
Relatlimab analog, anti-LAG-3 benchmark (human), sequence (light, as listed by the source, chain 2 of 2): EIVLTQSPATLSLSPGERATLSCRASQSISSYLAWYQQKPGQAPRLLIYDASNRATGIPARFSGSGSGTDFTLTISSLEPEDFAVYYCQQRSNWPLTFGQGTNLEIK

In the case of “human Fc-gamma receptor I (FcγRI) (from UniProt P12314 16-374)”, the results for the Kd in assay [1] and in assay [2] were 3 nM and 2.6 nM, respectively.
